Laboratory results from patent publication US20220235344A1, “TRYPSIN VARIANTS WITH IMPROVED ENZYMATIC PROPERTIES” (BIOPHARMA TRANSLATIONSINSTITUT DESSAU FORSCHUNGS GMBH, priority 2018, published 2022).
“And” between values parts separate entries of the source, which are not always exact repeats. Equal values may be shown once.

T1: Bz-AAYRAHAG-OH (acyl donor) / H-RAHAK(DNP)-OH (acyl acceptor) (Rattus norvegicus, UniProt P00763, D194K/K66E/Y45H/Y65H)
T1 construct: monomeric enzyme species (about 24 kDa); made in house; host or cells: Pichia pastoris X-33 (pPICZalphaA, secreted)
T1 sequence (P00763 24-246 Y45H/Y65H/K66E/D194K): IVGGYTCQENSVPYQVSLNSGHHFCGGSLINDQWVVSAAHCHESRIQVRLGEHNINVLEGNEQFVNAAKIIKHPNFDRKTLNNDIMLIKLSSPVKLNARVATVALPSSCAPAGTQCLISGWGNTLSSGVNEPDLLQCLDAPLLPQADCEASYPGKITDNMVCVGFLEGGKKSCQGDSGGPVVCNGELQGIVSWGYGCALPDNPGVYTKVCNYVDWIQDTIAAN

T2: Bz-PGGYRAHAG-OH (acyl donor) (Rattus norvegicus, UniProt P00763, D194K/K66E/Y45H/Y65H)
T2 construct: made in house; host or cells: Pichia pastoris X-33
T2 sequence (P00763 24-246 Y45H/Y65H/K66E/D194K): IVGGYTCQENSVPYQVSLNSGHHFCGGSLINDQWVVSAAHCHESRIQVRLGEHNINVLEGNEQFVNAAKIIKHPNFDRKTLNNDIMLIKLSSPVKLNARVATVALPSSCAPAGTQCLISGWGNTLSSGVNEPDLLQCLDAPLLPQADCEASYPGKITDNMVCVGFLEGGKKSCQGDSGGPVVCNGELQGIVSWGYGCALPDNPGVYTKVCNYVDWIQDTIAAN

T3: H-RAHAK(DNP)-OH (acyl acceptor), acyl donor Bz-PGGYRAHAG-OH (Rattus norvegicus, UniProt P00763, D194K/K66E/Y45H/Y65H)
T3 construct: made in house; host or cells: Pichia pastoris X-33
T3 sequence (P00763 24-246 Y45H/Y65H/K66E/D194K): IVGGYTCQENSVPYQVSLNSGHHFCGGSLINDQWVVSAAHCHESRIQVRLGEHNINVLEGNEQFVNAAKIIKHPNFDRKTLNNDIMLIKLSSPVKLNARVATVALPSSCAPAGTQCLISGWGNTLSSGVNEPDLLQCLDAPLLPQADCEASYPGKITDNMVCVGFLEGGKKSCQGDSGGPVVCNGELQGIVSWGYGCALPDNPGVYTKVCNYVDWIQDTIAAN

T4: Bz-PGGYRAHAG-OH (acyl donor) (Rattus norvegicus, UniProt P00763, A221T/D194K/E154Y/G219Q/H46F/K102D/K66E/L104F/N146E/Q197A/R101E/S195V/S215G/Y45H/Y65H)
T4 construct: made in house; host or cells: Pichia pastoris X-33
T4 sequence (P00763 24-246 Y45H/H46F/Y65H/K66E/R101E/K102D/L104F/N146E/E154Y/D194K/S195V/Q197A/S215G/G219Q/A221T): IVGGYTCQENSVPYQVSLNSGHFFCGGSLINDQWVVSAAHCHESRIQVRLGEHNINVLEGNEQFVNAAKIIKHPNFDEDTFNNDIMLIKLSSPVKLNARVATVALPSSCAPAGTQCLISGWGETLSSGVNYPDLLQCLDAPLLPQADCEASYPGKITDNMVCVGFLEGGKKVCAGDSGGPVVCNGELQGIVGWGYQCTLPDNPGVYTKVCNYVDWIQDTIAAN


Experiments:
Assay type in all cases: biochemical
[1] = molecular target: T1, Bz-AAYRAHAG-OH (acyl donor) / H-RAHAK(DNP)-OH (acyl acceptor); experiment: Zinc dependence of the transamidation reaction, Trypsiligase II
Experimental: (§1) Model transamidation reactions were performed in a solution containing 15 to 250 μM acyl donor, 2 eq. of the corresponding acyl acceptor, varying concentrations of trypsin variant, 100 mM HEPES/NaOH pH 7.8, ±0.1 mM ZnC12, 100 mM NaCl, 10 mM CaCl2) at 30° C. Acyl donor and acyl acceptor had the same amino acids in P1′-P3′ position, e.g. Bz-[…]+H-RAHAK-OH or Bz-[…]+H-RKKAK-OH. Variations are indicated. The acyl acceptor could be equipped with a 2,4-Dinitrophenyl group (DNP) at the side chain of the terminal lysine, e.g. H-RAHAK(DNP)-OH or H-RKKAK(DNP)-OH. The reactions were started by the addition of enzyme. To record the time course of product formation and/or for kinetic evaluation of the reaction several aliquots of the reaction mixture were quenched with 25% (v/v) acetic acid at distinct time points within up to 4 hours. The composition of the reaction mixture was analyzed by UPCL with method I or II, depending on the absence (method 1) or presence (method II) of a 2,4-dinitrophenyl group within the acyl acceptor (see example 1). Measurements were performed as duplicates and errors were less than 5%.

[2] = molecular target: T2, Bz-PGGYRAHAG-OH (acyl donor); experiment: Turnover rate of the hydrolysis reaction in the absence of a nucleophilic peptide; settings: Zinc ions (100 μM): yes; varying Bz-PGGYRAHAG-OH, 2 μM trypsin variant, no nucleophilic peptide
Experimental: (§2) Hydrolysis reactions were performed in a solution containing varying concentrations of the acyl donor Bz-[…]-OH (0-5000 μM for Trypsiligase II, 0-1500 μM for variant A2C8), 2 μM trypsin variant, 100 mM HEPES/NaOH pH 7.8, 100 mM NaCl, 10 mM CaCl2 at 30° C. In case of Trypsiligase II the reactions were performed in the presence of 100 μM ZnCl2. The reaction was started by the addition of enzyme. For kinetic evaluation of the reaction several aliquots of the reaction mixture were quenched with 25% (v/v) acetic acid at distinct time points within 30 minutes. The composition of the reaction mixture was analyzed by UPCL using method I (see example 1). UV absorption of the N-terminal benzoyl-group (Bz-), which is present in the acyl donor as well as in the hydrolysis product, was detected at 254 nm. To determine the turnover rate of the hydrolysis reaction (kcat,HL) the initial rates for the hydrolysis reaction were plotted against the corresponding acyl donor concentration and fitted to the Michaelis Menten equation. Measurements were performed as duplicates and errors were less than 5%.

[3] = molecular target: T3, H-RAHAK(DNP)-OH (acyl acceptor), acyl donor Bz-PGGYRAHAG-OH; experiment: KM value of the nucleophilic peptide (acyl acceptor); settings: Zinc ions (100 μM): yes; 250 μM Bz-PGGYRAHAG-OH, varying H-RAHAK(DNP)-OH
Experimental: For Trypsiligase II the measurements for KM values of the nucleophilic peptide (acyl acceptor) were carried out in the presence or absence of zinc ions due to its strong zinc ion dependency. In case of variant A2C8 measurements were carried out in the absence of zinc ions.
Transamidation reactions with Trypsiligase II and variant A2C8 were performed in a solution containing 250 μM of the acyl donor Bz-[…]-OH, varying concentrations of the acyl acceptor H-RAHAK(DNP)-OH (0-5000 μM for Trypsiligase II in the absence of zinc ions, 0-1500 μM for Trypsiligase II in the presence of zinc ions, 0-1000 μM for variant A2C8), 0.2-1.5 μM trypsin variant, 100 mM HEPES/NaOH pH 7.8, ±0.1 mM ZnCl2, 100 mM NaCl, 10 mM CaCl2 at 30° C. The reaction was started by the addition of enzyme. For kinetic evaluation of the reaction several aliquots of the reaction mixture were quenched with 25% (v/v) acetic acid at distinct time points within 30 minutes. The composition of the reaction mixture was analyzed by UPCL using method II (see example 1). UV absorption of the 2,4-Dinitrophenyl group (DNP), which is present in the acyl acceptor as well as in the aminolysis product, was detected at 360 nm. To determine the KM value of the nucleophilic peptide the initial rates for the aminolysis reaction were plotted against the corresponding acyl acceptor concentration and fitted to the Michaelis Menten equation. Measurements were performed as duplicates and errors were less than 5%.

[4] = tested on: R1-YRAH-R2 (Bz-PGGYRAHAG-OH) / H-RAHAK(DNP)-OH; experiment: Zinc dependence of the transamidation reaction, A2C8 and K7F11, YRAH
Experimental: as §1

[5] = tested on: Bz-PGGYRAHAG-OH (acyl donor); experiment: Turnover rate of the hydrolysis reaction in the absence of a nucleophilic peptide
Experimental: as §2

[6] = molecular target: T4, Bz-PGGYRAHAG-OH (acyl donor); experiment: as above; settings: Zinc ions: no; varying Bz-PGGYRAHAG-OH, 2 μM trypsin variant, no nucleophilic peptide
Experimental: as §2

[7] = R1-YRAH-R2, 250 μM acyl donor, 500 μM acyl acceptor, absence of zinc ions
[8] = R1-YRAH-R2, 100 μM acyl donor, 200 μM acyl acceptor, absence of zinc ions

Molecule | dependence for zinc ions [1] | reduction of the product yield in the absence of zinc ions (factor) [1] | kcat, AL^app + Zn^2+ (mkat/mol) ([1]; R1-YRAH-R2, 250 μM acyl donor, 500 μM H-RAHAK(DNP)-OH, 2 μM trypsin variant, 0.1 mM ZnCl2) | product yield + Zn^2+ (%) ([1]; R1-YRAH-R2, 250 μM acyl donor, 500 μM acyl acceptor, 0.1 mM ZnCl2) | kcat, AL^app − Zn^2+ (mkat/mol) [1, 7] [mkat/mol] | product yield − Zn^2+ (%) [1, 7] | drop of apparent turnover rate for the aminolysis reaction in the absence of zinc ions (factor) ([1]; YRAH) | kcat, HL (mkat/mol) [2] [mkat/mol] | Km [3] | dependence for zinc ions ([4]; A2C8: substrates with YRAH and YRKH sequence, K7F11: YRAH substrate only) | kcat, AL^app + Zn^2+ (mkat/mol) ([4]; R1-YRAH-R2, 100 μM acyl donor, 200 μM acyl acceptor, 2 μM trypsin variant, 0.1 mM ZnCl2) | product yield + Zn^2+ (%) ([4]; R1-YRAH-R2, 100 μM acyl donor, 200 μM acyl acceptor, 0.1 mM ZnCl2) | kcat, AL^app − Zn^2+ (mkat/mol) [4, 8] [mkat/mol] | product yield − Zn^2+ (%) [4, 8] [%] | reduction in the enzyme's hydrolysis activity versus Trypsiligase II (factor) [5] | kcat, HL (mkat/mol) [6] [mkat/mol]
Trypsiligase II (trypsin variant Y39H/Y59H/K60E/D189K) (protein) IVGGYTCQENSVPYQVSLNSGHHFCGGSLINDQWVVSAAHCHESRIQVRLGEHNINVLEGNEQFVNAAKIIKHPNFDRKTLNNDIMLIKLSSPVKLNARVATVALPSSCAPAGTQCLISGWGNTLSSGVNEPDLLQCLDAPLLPQADCEASYPGKITDNMVCVGFLEGGKKSCQGDSGGPVVCNGELQGIVSWGYGCALPDNPGVYTKVCNYVDWIQDTIAAN | strong dependence for zinc ions | 4 | 11.19 | 18% and 18.1% | 0.89 | 4% and 4.2% | 12 | 602.1 | 143 µM and 144 µM | – | – | – | – | – | – | –
A2C8: Trypsiligase II + H40F, A55A, R96E, K97D, L99F, N143E, E151Y, S190V, Q192A, S214G, G219Q, A221T (protein) IVGGYTCQENSVPYQVSLNSGHFFCGGSLINDQWVVSAAHCHESRIQVRLGEHNINVLEGNEQFVNAAKIIKHPNFDEDTFNNDIMLIKLSSPVKLNARVATVALPSSCAPAGTQCLISGWGETLSSGVNYPDLLQCLDAPLLPQADCEASYPGKITDNMVCVGFLEGGKKVCAGDSGGPVVCNGELQGIVGWGYQCTLPDNPGVYTKVCNYVDWIQDTIAAN | – | – | – | – | – | – | – | – | – | no dependence for zinc ions | 9.46 | 53.3 | 14.51 | 50.4 | 7 | 86.6
